“And” between values parts separate entries of the source, which are not always exact repeats. Identical values can stand only once.
B1: full-length VanSA (enzyme)
chain: MVIKLKNKKNDYSKLERKLYMYIVAIVVVAIVFVLYIRSMIRGKLGDWILSILENKYDLNHLDAMKLYQYSIRNNIDIFIYVAIVISILILCRVMLSKFAKYFDEINTGIDVLIQNEDKQIELSAEMDVMEQKLNTLKRTLEKREQDAKLAEQRKNDVVMYLAHDIKTPLTSIIGYLSLLDEAPDMPVDQKAKYVHITLDKAYRLEQLIDEFFEITRYNLQTITLTKTHIDLYYMLVQMTDEFYPQLSAHGKQAVIHAPEDLTVSGDPDKLARVFNNILKNAAAYSEDNSIIDITAGLSGDVVSIEFKNTGSIPKDKLAAIFEKFYRLDNARSSDTGGAGLGLAIAKEIIVQHGGQIYAESNDNYTTFRVELPAMPDLVDKRRS
notes: VanS sensor histidine kinase of type-A vancomycin resistance in enterococci, Uniprot Q06240, full length; the construct has 392 amino acids including the C-terminal PG-6xHis tag; Membrane protein; kept in 10 mM LDAO for SEC and storage and in 9 mM C12E8 for the SPR injections; source: E. coli BL21(DE3), purified from the membrane fraction (DDM extraction, IMAC, Sephacryl S-300 in LDAO)

What was measured:
[1] = target: the molecule itself; assay: SEC; Sephacryl S-300 in 50 mM Tris pH 7.8, 500 mM NaCl, 5 mM MgCl2, 10 mM LDAO; elution compared with the 80 kDa apotransferrin standard
full-length VanSA = target: B1; assay: SPR; 1D4-tagged VanRA captured on Rho1D4 antibody on a GLC chip; full-length VanSA as analyte in running buffer + 9 mM C12E8; 25°C; 50 mM BIS-TRIS pH 6.0, 150 mM NaCl, 10 mM MgCl2, 0.005% Tween 20; one-site model fitted to equilibrium responses; concentrations for dimers; settings: both partners purified
[2] = target: T1, cytosolic domain of VanSA (enterococci, UniProt Q06240 98-384); assay: SPR; 1D4-tagged VanRA captured on Rho1D4 antibody amine-coupled to a GLC chip (ProteOn XPR36); cytosolic histidine kinase as analyte; 25°C; 50 mM BIS-TRIS pH 6.0, 150 mM NaCl, 10 mM MgCl2, 0.005% Tween 20; one-site model fitted to equilibrium responses; concentrations for dimers; settings: both partners purified
T1 construct: two residues at the N-terminus contributed by the vector pETCH; VanS of type-A vancomycin resistance in enterococci, Uniprot Q06240, residues 98-384, beginning at K98 just after the second predicted transmembrane helix; also called cVanSA; Cytosolic VanSA; source: E. coli BL21(DE3), purified (IMAC, HiTrap Q, S-300)
T1 sequence: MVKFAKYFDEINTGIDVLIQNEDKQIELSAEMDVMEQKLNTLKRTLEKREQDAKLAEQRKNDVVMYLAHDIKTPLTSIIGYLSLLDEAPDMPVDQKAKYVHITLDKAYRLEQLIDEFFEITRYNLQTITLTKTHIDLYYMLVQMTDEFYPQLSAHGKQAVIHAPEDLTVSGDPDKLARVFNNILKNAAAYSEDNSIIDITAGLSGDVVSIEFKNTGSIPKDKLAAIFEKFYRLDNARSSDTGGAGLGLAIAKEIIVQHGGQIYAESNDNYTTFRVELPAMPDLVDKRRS

Phospho-cytosolic VanSA = target: T2, Phospho-cytosolic VanSA (enterococci, UniProt Q06240 98-384, phospho-histidine at the conserved histidine (autophosphorylated; not expected to be fully phosphorylated)); assay: as above; settings: both partners purified
T2 construct: two residues at the N-terminus contributed by the vector pETCH; VanS of type-A vancomycin resistance in enterococci, Uniprot Q06240, residues 98-384, beginning at K98; also called autophosphorylated cVanSA; phospho-cVanSA
T2 sequence: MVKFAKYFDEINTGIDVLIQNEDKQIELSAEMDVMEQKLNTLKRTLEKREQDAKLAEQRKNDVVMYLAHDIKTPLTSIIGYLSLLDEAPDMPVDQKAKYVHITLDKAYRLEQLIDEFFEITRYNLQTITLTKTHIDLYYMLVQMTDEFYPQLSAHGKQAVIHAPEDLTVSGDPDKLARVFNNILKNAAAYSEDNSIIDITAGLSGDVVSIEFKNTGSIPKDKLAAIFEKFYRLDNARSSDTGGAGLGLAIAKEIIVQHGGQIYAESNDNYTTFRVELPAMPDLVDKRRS

[3] = target: T1, cytosolic domain of VanSA; assay: fluorescence polarisation; fluorescence anisotropy; cVanSA titrated into 40 nM fluorescein-labeled VanRA; 50 mM Tris pH 7.8, 100 mM NaCl, 5 mM MgCl2, 0.05% Tween-20; room temperature; settings: both partners purified

B1
binding result [1]: binds

B2: 1D4-tagged VanRA (natural protein)
chain: MSDKILIVDDEHEIADLVELYLKNENYTVFKYYTAKEALECIDKSEIDLAILDIMLPGTSGLTICQKIRDKHTYPIIMLTGKDTEVDKITGLTIGADDYITKPFRPLELIARVKAQLRRYKKFSGVKEQNENVIVHSGLVINVNTHECYLNEKQLSLTPTEFSILRILCENKGNVVSSELLFHEIWGDEYFSKSNNTITVHIRHLREKMNDTIDNPKYIKTVWGVGYKIEK
notes: VanR response regulator of type-A vancomycin resistance in enterococci, Uniprot Q06239; the 1D4 tag and linker add 13 residues to the wild-type VanRA construct; Expression and purification of this tagged construct are not described; also called tagged VanRA construct; immobilized VanRA
Kd (full-length VanSA): 1900 ± 700 nM | Kd [2]: 6800 ± 1400 nM | Kd (Phospho-cytosolic VanSA): 2500 ± 800 nM

B3: fluorescently-labeled VanRA (natural protein, enterococci)
chain: CMSDKILIVDDEHEIADLVELYLKNENYTVFKYYTAKEALECIDKSEIDLAILDIMLPGTSGLTICQKIRDKHTYPIIMLTGKDTEVDKITGLTIGADDYITKPFRPLELIARVKAQLRRYKKFSGVKEQNENVIVHSGLVINVNTHECYLNEKQLSLTPTEFSILRILCENKGNVVSSELLFHEIWGDEYFSKSNNTITVHIRHLREKMNDTIDNPKYIKTVWGVGYKIEK
modifications: fluorescein maleimide on the cysteine introduced at the N-terminus
notes: additional cysteine at the N-terminus, introduced by site-directed mutagenesis instead of the glycine of the wild-type construct; VanR response regulator of type-A vancomycin resistance in enterococci, Uniprot Q06239; Expression and purification of the cysteine mutant are not described; After labelling it was passed over Sephacryl S-100 HR; also called fluorescein-labeled VanRA; …
Kd [3]: 200 nM and 100 to 1000 nM

— PMC6345502, “Vancomycin does not affect the enzymatic activities of purified VanSA” (PLoS ONE, 2019)
